Experimental data from patent publication US20240043528A1, “NANOBODY-OGA FUSIONS AND USES THEREOF” (President and Fellows of Harvard College, priority 2020, published 2024).

Key:
[1] = test system: GFP-Nup62; experiment: Deglycosylation of GFP-Nup62 co-expressed with OGA constructs (anti-EPEA enrichment, RL2 immunoblot); format: cell-based, human; conditions: co-expressed in HEK 293T cells
Experimental: (§1) HEK 293T cells were cultured in Dulbecco's Modified Eagle Medium (DMEM, Cat #11995073) supplemented with penicillin (50 μg/mL) and streptomycin (50 μg/mL) along with 10% (v/v) FBS. Transfections of all plasmids in this study were performed using TransIT-PRO® (Mirus Bio, Cat #MIR 5740) according to the manufacturer's instructions.
Glycoproteins Nup62, Sp1, JunB, c-Jun were subcloned into pcDNA3.1 vector with a GFP and a Flag-tag or a BC2 tag in the N-terminus and an EPEA tag in the C terminus respectively, unless otherwise noted. For all split OGA constructs with or without the fusion of nanobody GFP, N fragments were tagged with myc tag and C fragments were tagged with HA tag respectively. Human SP1 cDNA ORF plasmid (Cat #HG12024-G), human c-Fos cDNA ORF plasmid, and human OGT cDNA ORF cloned with a C-terminal His tag (Cat #HG11279-M) were purchased from Sino Biological. For subcloning, PCR fragments were amplified using Q5 High-Fidelity 2× Master Mix (New England BioLabs, Cat #M0492S). The vectors were double-digested and ligated to gel-purified PCR products by T4 ligation using T4 DNA ligase (New England BioLabs, Cat #M0202S) or by Gibson assembly using Gibson Assembly Master mix (New England BioLabs, Cat #E2611L). c-Fos was subcloned into a pcDNA3.1 vector with a 14-residue Ubc tag (amino acids: QADQEAKELARQIA (SEQ ID NO: 11)), Flag tag, and EPEA tag at the C terminus. All nanobody DNA fragments were synthesized by IDT.
After 36-48 h of transfection, cells were harvested and washed with PBS once. Cells were lysed with M-PER lysis buffer containing 1× protease inhibitor cocktail and 10 μM Thiamet-G unless otherwise noted. Protein concentrations were determined by the BCA assay kit (G-Biosciences, 786) on a multi-mode microplate reader FilterMax F3 (Molecular Devices LLC, Sunnyvale, CA).
For immunoprecipitation of proteins with the C-terminal EPEA tag, cell lysates with equal amounts of protein were diluted with PBS and incubated with C-tag affinity matrix (Thermo Scientific) for 1 h at room temperature, with end-to-end rotation, following the manufacturer's instructions. After washing three times with PBS buffer, the enriched proteins were eluted with SDS sample buffer and subjected to SDS-PAGE.
For immunoblotting analysis, proteins were transferred to a nitrocellulose membrane using iBlot (Thermo Scientific). Membranes were blocked with Tris buffered saline containing 0.1% Tween-20 and 5% BSA and incubated with the primary antibodies (1:1000 dilution) and the secondary antibodies (1:10,000 dilution) sequentially. Immunoblot images were captured by Azure Imager C600. Analysis of immunoblots was conducted with Fiji ImageJ. All IR fluorescence western blot images are converted into grayscale images by Fiji ImageJ. The unsaturated exposure of immunoblot images was used for quantification with the appropriate loading controls as standards. Statistical analysis of the data was performed with Prism 8, using data from at least three independent experiments.

[2] = test system: GFP-Sp1; experiment: Deglycosylation of GFP-Sp1 co-expressed with OGA constructs (anti-EPEA enrichment, immunoblot); format: cell-based, human; conditions: co-expressed in HEK 293T cells
Experimental: as §1
Glycoproteins Nup62, Sp1, JunB, c-Jun were subcloned into pcDNA3.1 vector with a GFP and a Flag-tag or a BC2 tag in the N-terminus and an EPEA tag in the C terminus respectively, unless otherwise noted. For all split OGA constructs with or without the fusion of nanobody GFP, N fragments were tagged with myc tag and C fragments were tagged with HA tag respectively. […]
After 36-48 h of transfection, cells were harvested and washed with PBS once. […] Protein concentrations were determined by the BCA assay kit (G-Biosciences, 786) on a multi-mode microplate reader FilterMax F3 (Molecular Devices LLC, Sunnyvale, CA). […]
For immunoblotting analysis, proteins were transferred to a nitrocellulose membrane using iBlot (Thermo Scientific). […] All IR fluorescence western blot images are converted into grayscale images by Fiji ImageJ. The unsaturated exposure of immunoblot images was used for quantification with the appropriate loading controls as standards. […]

[3] = target: T1, OGT (Homo sapiens, UniProt O15294); experiment: Co-immunoprecipitation of OGA constructs with His-tagged OGT; format: cell-based; conditions: OGT-His co-transfected in HEK 293T cells
T1 construct: host or cells: HEK 293T
T1 sequence (O15294 1-1046): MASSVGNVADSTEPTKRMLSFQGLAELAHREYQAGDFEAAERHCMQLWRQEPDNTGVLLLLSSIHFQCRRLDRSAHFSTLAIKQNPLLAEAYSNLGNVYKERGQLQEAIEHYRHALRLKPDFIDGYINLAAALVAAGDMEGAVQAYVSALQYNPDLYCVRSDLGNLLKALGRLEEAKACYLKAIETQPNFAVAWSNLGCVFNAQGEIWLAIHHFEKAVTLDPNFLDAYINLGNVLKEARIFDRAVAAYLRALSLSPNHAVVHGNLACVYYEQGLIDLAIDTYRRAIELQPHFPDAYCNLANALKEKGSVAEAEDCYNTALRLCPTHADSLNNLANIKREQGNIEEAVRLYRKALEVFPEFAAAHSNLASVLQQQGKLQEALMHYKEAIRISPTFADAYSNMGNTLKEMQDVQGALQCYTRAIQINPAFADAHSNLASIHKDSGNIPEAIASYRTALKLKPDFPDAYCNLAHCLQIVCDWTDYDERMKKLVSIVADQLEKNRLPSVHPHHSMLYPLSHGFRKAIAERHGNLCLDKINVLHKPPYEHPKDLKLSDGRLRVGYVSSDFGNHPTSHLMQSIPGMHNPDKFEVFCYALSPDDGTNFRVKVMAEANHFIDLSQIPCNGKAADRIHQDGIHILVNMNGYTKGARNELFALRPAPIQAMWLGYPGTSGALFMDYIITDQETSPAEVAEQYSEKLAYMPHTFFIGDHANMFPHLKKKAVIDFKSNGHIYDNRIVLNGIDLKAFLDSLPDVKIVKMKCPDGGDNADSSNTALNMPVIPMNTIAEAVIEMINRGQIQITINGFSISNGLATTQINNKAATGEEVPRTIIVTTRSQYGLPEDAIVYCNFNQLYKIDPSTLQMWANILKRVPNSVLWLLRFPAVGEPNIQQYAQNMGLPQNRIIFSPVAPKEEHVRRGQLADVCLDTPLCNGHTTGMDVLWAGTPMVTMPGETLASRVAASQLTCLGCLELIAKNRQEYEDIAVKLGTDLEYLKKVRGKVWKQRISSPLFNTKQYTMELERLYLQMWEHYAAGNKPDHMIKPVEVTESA
Experimental: For immunoprecipitation of proteins with His tag, cells were lysed in a buffer containing 50 mM Tris HCl pH 8.0, 150 mM NaCl, 1% Triton X-100, 5% glycerol, 1× protease inhibitor cocktail and 10 μM Thiamet-G on ice for 20 min. Cell lysates with equal amounts of protein were diluted with wash buffer (50 mM Tris HCl pH 8.0, 150 mM NaCl, 0.01% Tween-20) and incubated with pre-washed His-Tag Dynabeads (Invitrogen, 10103D) at room temperature for 20 min with mixing, following the manufacturer's instructions. After washed 4 times with wash buffer, the enriched proteins were eluted with elution buffer (300 mM Imidazole, 50 mM Tris HCl pH 8.0, 150 mM NaCl, 0.01% Tween-20) on a shaker for 10 min at room temperature.

B1: split OGA (N2+C3): split OGA fragments N2 and C3 without nanobody (protein)
chain 1: MEQKLISEEDLAIAMVQKESQATLEERESELSSNPAASAGASLEPPAAPAPGEDNPAGAGGAAVAGAAGGARRFLCGVVEGFYGRPWVMEQRKELFRRLQKWELNTYLYAPKDDYKHRMFWREMYSVEEAEQLMTLISAAREYEIEFIYAISPGLDITFSNPKEVSTLKRKLDQVSQFGCRSFALLFDDIDHNMCAADKEVFSSFAHAQVSITNEIYQYLGEPETFLFCPTEYCGTFCYPNVSQSPYLRTVGEKLLPGIEVLWTGPKVVSKEIPVESIEEVSKIIKRAPVIWDNIHANDYDQKRLFLGPYKGRSTELIPRLKGVLTNPNCEFEANYVAIHTLATWYKSNMNGVRKDVVMTDSEDSTVSIQIKLENEGSDEDIETDVLYSPQMALKLALTEWLQEFGVPHQYSSR
chain 2: MAYPYDVPDYAAIAEKPLYTAEPVTLEDLQLLADLFYLPYEHGPKGAQMLREFQWLRANSSVVSVNCKGKDSEKIEEWRSRAAKFEEMCGLVMGMFTRLSNCANRTILYDMYSYVWDIKSIMSMVKSFVQWLGCRSHSSAQFLIGDQEPWAFRGGLAGEFQRLLPIDGANDLFFQPP
With B1 the “deglycosidase activity / O-GlcNAc modification level on GFP-Nup62” value [1] was “limited substrate activity”, the “deglycosidase activity / O-GlcNAc modification level on GFP-Nup62” value ([1]; listed as N2-C3 pair) was “significantly reduced activity” and the “deglycosidase activity / O-GlcNAc level on GFP-Sp1” value [2] was “weak inherent deglycosidase activity”. For the same molecule, the “interaction with OGT” value [3] was “unable to interact with OGT”.
